# In patent US20180037632A1 (BIONTECH, published 2018):
# Substitutions are numbered along the chain they refer to. Names and notes keep the numbering of the source. Positions of bridges follow the written chain, without caps; N, C: chain ends. No end group written: not given here.
# B1: MC-FA-012 (designed binder)
# chain: GACPYSNWTPGRGPDCRRDSDCPGRCICRGNGYCG
# modifications: disulfide (positions not given here)
# notes: it is derived from MC-FA-010 and K2A; also called MC-FA-012 (K2A); monomeric MC-FA-012 Microbody
# B2: AlexaFluor680-(MC-FA-012)3 (designed binder, not shown: small tags and cut ends)
# chain 1: B1 chain
# chain 2: B1 chain
# chain 3: B1 chain
# modifications: each of chains 1-3: N-terminal aminooxy group oxime-ligated to the anchor; three disulfides (cystine knot) per chain; anchor carries AlexaFluor680 at its N-terminal amine
# notes: Purchased from Pepscan; also called AF680-(MC-FA-012)3
# B3: Trx-MC-FA-013 (designed binder)
# chain: B1 chain with A2K, P4A
# modifications: disulfide 16-28, 22-34, 3-26; also: N-terminal Trx-His6-S-tag fusion carrier, not in chain
# notes: the position follows from the order of the rows; also called alanine scan variant P4A of MC-FA-010, Trx fusion; not shown: Thioredoxin-A, His-tag (H6), S-tag and linker of the pET-32-LibEx fusion, N-terminal of the miniprotein
# B4: Trx-MC-FA-011 (designed binder)
# chain: B1 chain with G1A, A2K
# modifications: disulfide 16-28, 22-34, 3-26; also: N-terminal Trx-His6-S-tag fusion carrier, letters not given here
# notes: the position follows from the order of the rows; also called alanine scan variant G1A of MC-FA-010, Trx fusion; not shown: Thioredoxin-A, His-tag (H6), S-tag and linker of the pET-32-LibEx fusion, N-terminal of the miniprotein
# B5: Trx-MC-FA-012 fusion protein (designed binder)
# chain: B1 chain
# modifications: disulfide 16-28, 22-34, 3-26; also: N-terminal Trx-His6-S-tag fusion carrier, not in chain
# notes: also called MC-FA-012 (K2A) alanine scan variant; not shown: N-terminal carrier of the pET-32-LibEx fusion (thioredoxin-A, His tag, S-tag, thrombin site, vector linkers)
# B6: Trx-MC-FA-015 (designed binder)
# chain: B1 chain with A2K, S6A
# modifications: disulfide 16-28, 22-34, 3-26; also: N-terminal Trx-His6-S-tag fusion carrier, not in chain
# notes: the position follows from the order of the rows; also called alanine scan variant S6A of MC-FA-010, Trx fusion; not shown: thioredoxin-A, His6 tag, S-tag and linkers of the pET-32-LibEx fusion (N-terminal carrier)
# B7: Trx-MC-FA-0114 (designed binder)
# chain: B1 chain with A2K, D15A
# modifications: disulfide 16-28, 22-34, 3-26; also: N-terminal Trx-His6-S-tag fusion carrier, not in chain
# notes: the position follows from the order of the rows; also called alanine scan variant D15A of MC-FA-010, Trx fusion; not shown: Thioredoxin-A, His-tag (H6), S-tag and linker of the pET-32-LibEx fusion, N-terminal of the miniprotein
# B8: Trx-MC-FA-016 (designed binder)
# chain: B1 chain with A2K, N7A
# modifications: disulfide (positions not given here); also: N-terminal thioredoxin-A, His6, S-tag and linker carrier, letters not given here
# notes: the position follows from the order of the rows; also called alanine scan variant N7A of MC-FA-010, Trx fusion; not shown: thioredoxin-A, His6 tag, S-tag and linkers of the pET-32-LibEx fusion (N-terminal carrier)
# B9: Trx-MC-FA-0115 (designed binder)
# chain: B1 chain with A2K, R25A
# modifications: disulfide 16-28, 22-34, 3-26; also: N-terminal Trx-His6-S-tag fusion carrier, not in chain
# notes: also called alanine scan variant R25A of MC-FA-010, Trx fusion; not shown: Thioredoxin-A, His-tag (H6), S-tag and linker of the pET-32-LibEx fusion, N-terminal of the miniprotein
# B10: Trx-MC-FA-018 (designed binder)
# chain: B1 chain with A2K, T9A
# modifications: disulfide 16-28, 22-34, 3-26; also: N-terminal Trx-His6-S-tag fusion carrier, not in chain
# notes: the position follows from the order of the rows; also called alanine scan variant T9A of MC-FA-010, Trx fusion; not shown: thioredoxin-A, His6 tag, S-tag and linkers of the pET-32-LibEx fusion (N-terminal carrier)
# How the values were obtained:
# [1] = target: T1, recombinant soluble human Seprase (rhuSeprase) (human, UniProt Q12884 29-760); assay: SPR (Biacore T-100), rhuSeprase immobilized on CM5, multi cycle kinetics, 1:1 fit
# T1 construct: range 29-760; Secreted from CHO-S cells with a mouse Ig kappa secretion signal (not part of the protein in the assay); also called recombinant human Seprase; soluble fraction of human Seprase
# T1 sequence: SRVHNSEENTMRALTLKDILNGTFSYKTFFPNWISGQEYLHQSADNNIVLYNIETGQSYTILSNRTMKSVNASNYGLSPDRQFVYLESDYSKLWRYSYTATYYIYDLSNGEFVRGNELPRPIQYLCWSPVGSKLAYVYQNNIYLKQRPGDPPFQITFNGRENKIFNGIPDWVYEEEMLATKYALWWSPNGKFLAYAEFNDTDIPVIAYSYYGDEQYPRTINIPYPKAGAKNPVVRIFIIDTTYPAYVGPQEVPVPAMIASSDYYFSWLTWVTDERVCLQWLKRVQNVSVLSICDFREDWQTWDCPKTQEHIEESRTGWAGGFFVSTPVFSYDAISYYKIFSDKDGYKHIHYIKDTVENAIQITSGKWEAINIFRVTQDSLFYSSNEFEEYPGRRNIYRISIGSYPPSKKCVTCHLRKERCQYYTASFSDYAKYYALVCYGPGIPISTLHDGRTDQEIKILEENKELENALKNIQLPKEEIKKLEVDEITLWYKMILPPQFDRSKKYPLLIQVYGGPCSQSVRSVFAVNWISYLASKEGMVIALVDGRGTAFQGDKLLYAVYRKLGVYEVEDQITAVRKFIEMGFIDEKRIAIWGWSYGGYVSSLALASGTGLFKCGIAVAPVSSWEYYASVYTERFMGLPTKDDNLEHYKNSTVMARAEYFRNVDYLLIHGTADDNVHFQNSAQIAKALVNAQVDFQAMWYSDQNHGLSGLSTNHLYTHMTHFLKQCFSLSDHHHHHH
# Protocol: (§1) RhuSeprase (20 μg/ml in PBS, 5% mannitol, 5% trehalose) was immobilized on an amino reactive Series S Sensor Chip CM5 (GE Healthcare). For binding analysis of monomeric Microbodies rhuSeprase was loaded to a maximum of 7500 RU, for oligomeric Microbodies to a maximum of 700 RU. Monomeric Microbodies were measured using a multi cycle kinetic method in a concentration range of 3.125 to 1000 nM based on expected dissociation constant. Association step was measured over a time period of 60-90 seconds, dissociation over 420 seconds. Trimeric Mircobodies were measured using a single cycle kinetics method in a concentration range of 0.3125 to 5 nM (association for 90 seconds, dissociation 420 seconds). Binding kinetics and steady state analysis were calculated using a 1:1 binding model (Biacore T-100 Evaluation Software, GE Healthcare).
# (§2) The binding kinetics of monomeric and trimeric Seprase-binding Microbodies was determined using surface plasmon resonance spectroscopy on a Biacore T-100 system.
# [2] = target: T1, recombinant soluble human Seprase …; assay: SPR (Biacore T-100), rhuSeprase immobilized on CM5, steady state analysis, 1:1 fit
# Protocol: as §1, §2
# [3] = target: T1, recombinant soluble human Seprase …; assay: SPR (Biacore T-100), rhuSeprase immobilized on CM5, single cycle kinetics, 1:1 fit
# Protocol: as §1, §2
# [4] = target: T1, recombinant soluble human Seprase …; assay: SPR (Biacore T-100)
# Protocol: as §1, §2
# [5] = target: T1, recombinant soluble human Seprase …; assay: direct ELISA on coated rhuSeprase, Trx fusion detected with anti-S-tag-HRP; apparent KD from one site saturation fit; Error 3,04; R2 0,9976
# Protocol: (§3) For protein based ELISA analysis 5 μg of the respective recombinant protein (rhuSeprase; streptavidin: Sigma; DPP-IV: R&D Systems, BSA: Eurobio) were immobilized per well of a MaxiSorp™ plate (Nunc) by overnight incubation in coating buffer at 4° C. After washing thrice with 300 μl PBS-T/well on a Hydrospeed plate washer (Tecan) the wells were blocked with 1×Casein solution (Sigma, diluted in PBS) for 2 h at RT. Subsequently, the wells were washed as indicated above. 100 μl of the respective Trx-miniprotein fusion diluted in PBS-T was then added and incubated for 1 h at 4° C. […] For competition ELISAs a fixed concentration of 3 nM Trx-miniprotein fusion was mixed with varying concentration (0.64-3167 nM) of solitary miniprotein before incubation. Binding of the Trx-fusion was detected after a PBS-T washing procedure using HRP coupled anti S-tag antibody as described above. Apparent Kd was calculated using Sigmaplot 10 and an one site saturation binding model for fitting of the data.
# [6] = target: T1, recombinant soluble human Seprase …; assay: direct ELISA on coated rhuSeprase; binding relative to the parental Trx-MC-FA-010
# Protocol: as §3
# [7] = target: T1, recombinant soluble human Seprase …; assay: direct ELISA on coated rhuSeprase, Trx fusion detected with anti-S-tag-HRP; apparent KD from one site saturation fit; Error 1,17; R2 0,9981
# Protocol: as §3
# [8] = target: T1, recombinant soluble human Seprase …; assay: direct ELISA on coated rhuSeprase, Trx fusion detected with anti-S-tag-HRP; apparent KD from one site saturation fit; Error 0,54; R2 0,9981
# Protocol: as §3
# [9] = target: T1, recombinant soluble human Seprase …; assay: direct ELISA on coated rhuSeprase, Trx fusion detected with anti-S-tag-HRP; apparent KD from one site saturation fit; Error 1,02; R2 0,9976
# Protocol: as §3
# [10] = target: T1, recombinant soluble human Seprase …; assay: direct ELISA on coated rhuSeprase, Trx fusion detected with anti-S-tag-HRP; apparent KD from one site saturation fit; Error 1,76; R2 0,9973
# Protocol: as §3
# [11] = target: T1, recombinant soluble human Seprase …; assay: direct ELISA on coated rhuSeprase, Trx fusion detected with anti-S-tag-HRP; apparent KD from one site saturation fit; Error 11,54; R2 0,9969
# Protocol: as §3
# [12] = target: T1, recombinant soluble human Seprase …; assay: direct ELISA on coated rhuSeprase, Trx fusion detected with anti-S-tag-HRP; apparent KD from one site saturation fit; Error 1,17; R2 0,9977
# Protocol: as §3
# [13] = target: T1, recombinant soluble human Seprase …; assay: direct ELISA on coated rhuSeprase, Trx fusion detected with anti-S-tag-HRP; apparent KD from one site saturation fit; Error 3,63; R2 0,9974
# Protocol: as §3
Binder,Kd [1],koff [1],kon [1],Kd [2],Relative Bindung im Vergleich zu Trx-MC-FA-010 [%] [6],further results
GSGACPYSNWTPGRGPDCSQDSDCLAGCVCGPNGFCG (designed binder) [ET-FA-012],1400 nM,0.853 s⁻¹,608000 M⁻¹ s⁻¹,4540 nM,–,–
GSGACPYTRWAVGRGPDCRRDSDCPGRCICRGNGYCG (designed binder) [FA8-D03],147 nM,0.138 s⁻¹,939000 M⁻¹ s⁻¹,151 nM,–,–
GSGACPYTNWRPGRGPACRRDSDCPGRCICRGNGYCG (designed binder) [FA8-C09],296 nM,2.94 s⁻¹,9.92e+06 M⁻¹ s⁻¹,243 nM,–,–
GSGACPYSRWMPGRGPSCRRDSDCPGRCICRGNGYCG (designed binder) [FA7-A05],205 nM,0.0503 s⁻¹,246000 M⁻¹ s⁻¹,102 nM,–,–
GSGACPYSNWAVGRGPSCRRDSDCPGRCICRGNGYCG (designed binder) [FA8-F04],321 nM,0.2 s⁻¹,624000 M⁻¹ s⁻¹,332 nM,–,–
GSGACPYSRWAVGRGPDCRRDSDCPGRCICRGNGYCG (designed binder) [FA8-D06],153 nM,0.053 s⁻¹,346000 M⁻¹ s⁻¹,113 nM,–,–
GSGACPYTNWHPGRGPACRRDSDCPGRCICRGNGYCG (designed binder) [FA8-G12],487 nM,0.317 s⁻¹,651000 M⁻¹ s⁻¹,470 nM,–,–
GSGACPYTRWQPGRGPSCRRDSDCPGRCICRGNGYCG (designed binder) [FA8-D05],193 nM,0.812 s⁻¹,4.21e+06 M⁻¹ s⁻¹,177 nM,–,–
B1,340 nM,0.139 s⁻¹,408000 M⁻¹ s⁻¹,246 nM,–,–
B2,–,–,–,0.669 nM,–,Kd [3]: 0.0615 nM; kon [3]: 1.68e+07 M⁻¹ s⁻¹; times slower offrate compared to MC-FA-012 [4]: ~134 fold
B3,–,–,–,–,33.7%,Kd [5]: 44.9 nM
B4,–,–,–,–,74.5%,Kd [7]: 20.3 nM
B5,–,–,–,–,160%,Kd [8]: 9.49 nM
B6,–,–,–,–,93.6%,Kd [9]: 16.2 nM
B7,–,–,–,–,59.2%,Kd [10]: 25.6 nM
B8,–,–,–,–,13.4%,Kd [11]: 113 nM
B9,–,–,–,–,80.7%,Kd [12]: 18.8 nM
B10,–,–,–,–,29.9%,Kd [13]: 50.6 nM
GSGACPYSNWTPGRGPDCSSDSDCPGACICLENGFCG (designed binder) [MO-FA-012],1340 nM,0.513 s⁻¹,382000 M⁻¹ s⁻¹,1160 nM,–,–
